B1: unnamed (protein)
chain: MKPENKLPVLDLISAEMKTVVNTLQPDLPPWPATGTIAEQRQYYTLERRFWNAGAPEMATRAYMVPTKYGQVETRLFCPQPDSPATLFYLHGGGFILGNLDTHDRIMRLLASYSQCTVIGIDYTLSPEARFPQAIEEIVAACCYFHQQAEDYQINMSRIGFAGDSAGAMLALASALWLRDKQIDCGKVAGVLLWYGLYGLRDSVTRRLLGGVWDGLTQQDLQMYEEAYLSNDADRESPYYCLFNNDLTREVPPCFIAGAEFDPLLDDSRLLYQTLAAHQQPCEFKLYPGTLHAFLHYSRMMKTADEALRDGAQFFTAQL
B2: unnamed (protein)
chain: B1 chain with D164A
B3: unnamed (protein)
chain: B1 chain with D262A
B4: unnamed (protein)
chain: B1 chain with D266A
B5: unnamed (protein)
chain: B1 chain with G163A
B6: unnamed (protein)
chain: B1 chain with H103N
B7: unnamed (protein)
chain: B1 chain with E128Q
B8: unnamed (protein)
chain: B1 chain with G167A

Substitutions are numbered along the chain they refer to.

Substrate in the data set: p-NP-C4
Conditions: pH 7.1; 25 °C.
Regarding B1, the Km (commonly the substrate concentration at which the rate is half of its maximum) was 500 µM; the kcat (as a rule, the number of substrate molecules converted per active site and unit of time at saturation) is 30.9 s⁻¹; the kcat/Km (commonly the turnover number divided by the Michaelis constant) was found to be 61800 M⁻¹ s⁻¹.

For the protein B2, the Km amounted to 1000 µM, the kcat worked out at 0.007 s⁻¹ and the kcat/Km was found to be 7 M⁻¹ s⁻¹.

Consider B3, for which the Michaelis constant (Km) was found to be 400 µM, the kcat was found to be 0.034 s⁻¹ and the kcat/Km was found to be 85 M⁻¹ s⁻¹.

Consider B4, for which the Michaelis constant (Km) was 500 µM, the kcat came out at 3.4 s⁻¹ and the kcat/Km came to 6800 M⁻¹ s⁻¹.

Regarding B5, the Michaelis-Menten constant (Km) was found to be 500 µM, the kcat worked out at 2.9 s⁻¹ and the kcat/Km turned out to be 5800 M⁻¹ s⁻¹.

As to B6, the Michaelis constant (Km) was determined as 250 µM, the kcat is 12.1 s⁻¹ and the kcat/Km is 48400 M⁻¹ s⁻¹.

B7: the Km came to 350 µM, the kcat is 7.4 s⁻¹ and the catalytic efficiency (kcat/Km) is 21100 M⁻¹ s⁻¹.

Consider B8, for which the Michaelis constant (Km) is 2000 µM, the kcat came out at 49.4 s⁻¹ and the kcat/Km was found to be 24700 M⁻¹ s⁻¹.

Values taken from the PETadex activity labels (doi:10.1016/s0014-5793(99)00813-3).
